Positions count from the first letter of the chain named.
B1: 1H10 antibody (human CD33^PAN antibody clone, hybridoma-derived) (antibody, V domains shown)
VH: QVQLVQSGAEVKKPGASVKVSCKGSGYIFTSYDMHWVRQAPGQGLEWMGIIDPSGGSTSYAQKFQGRVTMTRDTSMSTVYMELSSLRSEDTAVYYCTRDYSWSYFDYWGQGTLVTVSS
VL: AIQMTQSPSSLSASVGDRVTITCRASQGIRIYLGWYQQKPGKAPKLLIYATSSLQSGVPSRFSGSGSGTDFTLTISSLQPEDFATYYCLQDYNYPWTFGQGTKVEIK
notes: also called clone 1H10
B2: 1H8 antibody (human CD33V-set antibody clone, hybridoma-derived) (antibody, V domains shown)
VH: QVQLVESGGGVVQPGGSLRLSCAASGFTFGSYGMHWVRQAPGKGLEWVAVIWYDGSNEYYADSVKGRFTVSRDNSKHTLYLQMNRLRAEDTAVYYCARDLDYDSSGGDYWGQGILVLVSS
VL: EIVLTQSPDFQSVTPKEKVTITCRASQNIGGNLHWYQQKPDQSPKLLIRYATQPFSGVPSRFGGSGSGTDFTLTINSLEAEDAATYYCHQSSSLPLTFGGGTKVEIK
notes: also called clone 1H8
B3: 2D3 antibody (human CD33V-set antibody clone, hybridoma-derived) (antibody, V domains shown)
VH: EVQLLESGGGLVQPGGSLSLSCAASGFTFSIYAMSWVRQAPGKGLEWVSAISDSGGTTYYADSVKGRFTISRDNSKNMLYLEMNSLRAEDTAIYYCAKRTRYFNGMDVWGQGTTVTVSS
VL: EIVMTQSPATLSLSPGERATLSCRASQSGSSSFLSWYQQKPGQAPRLLIYGASTRATGIPARFSGSGSGTDFTLTISSLQPEDFAVYYCQQDYNLPFTFGPGTKVDIK
notes: also called clone 2D3
B4: 1A9 antibody (human CD33^PAN antibody clone, hybridoma-derived) (antibody, V domains shown)
VH: EVQLVESGGGLVQPGGSLRLSCAASGFTFSIYDMHWVRQATGKGLEWVSAIGTAGDTYYAGSVKGRFTISRENAKNSLYLQMNSLRAGDTAVYYCAREYSGYYFDYWGQGTLVTVSS
VL: B1 VL with G28D, I31N, Y32D, L46I, A50G, T51A, L73F, D91E, W96C, V104L
notes: also called clone 1A9
B5: 1E6 antibody (human CD33^PAN antibody clone, hybridoma-derived) (antibody, V domains shown)
VH: QVQLVESGGGVVQPGRSLRLSCAASGFTFSSYDIHWVRQAPGKGLEWVAVIWYDGSHNYYSDSVKGRFTISRDNSKNTLYLQMNSLRAEDTAVYYCARDYSGSYYDYWGQGTLVTVSS
VL: B1 VL with I31N, Y32D, T51A, S53N, N93S, W96R
notes: also called clone 1E6
B6: 1B9 antibody (human CD33^PAN antibody clone, hybridoma-derived) (antibody, V domains shown)
VH: B5 VH with T28I, Y105F
VL: B1 VL with G28D, I31N, Y32D, Q37L, K39R, T51A, N93S, W96R, K103T
notes: also called clone 1B9
B7: 1D2 antibody (human CD33^PAN antibody clone, hybridoma-derived) (antibody, V domains shown)
VH: B5 VH with H57Q, N58K, S61A
VL: B1 VL with I31N, Y32D, K45E, T74I, N93S, W96R
notes: also called clone 1D2

Key:
[1] = target: T1, human full-length CD33 (CD33^FL) (human, UniProt P20138 18-364); experiment: flow cytometry on REH subline expressing CD33^FL
T1 construct: also called Siglec-3
T1 sequence (P20138 18-364): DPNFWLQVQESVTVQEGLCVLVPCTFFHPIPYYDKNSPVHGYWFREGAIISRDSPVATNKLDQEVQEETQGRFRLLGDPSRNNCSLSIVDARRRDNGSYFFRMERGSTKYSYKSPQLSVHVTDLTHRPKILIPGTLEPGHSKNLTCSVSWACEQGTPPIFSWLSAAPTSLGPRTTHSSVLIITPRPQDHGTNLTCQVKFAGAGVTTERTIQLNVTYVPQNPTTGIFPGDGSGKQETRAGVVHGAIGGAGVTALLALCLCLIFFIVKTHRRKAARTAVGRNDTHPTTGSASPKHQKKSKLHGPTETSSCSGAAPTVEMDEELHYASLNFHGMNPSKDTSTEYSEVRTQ

[2] = target: T1, human full-length CD33 (CD33^FL); experiment: flow cytometry on parental CD33+ ML-1 cells against ML-1 CD33 KO cells (endogenous CD33)

Binder	binding result [1]	binding result [2]
B1	binds	
B2	binds	
B3	binds	
B4		binds
B5		binds
B6		binds
B7		binds
